In article PMC11585782, “The Plastidial Protein Acetyltransferase GNAT1 Forms a Complex With GNAT2, yet Their Interaction Is Dispensable for State Transitions” (Molecular & Cellular Proteomics : MCP, 2024):

Key:
[1] = biological target: His6-GNAT2 (Arabidopsis thaliana) (UniProt Q7X9V3)
[2] = biological target: His6-GNAT2 (Arabidopsis thaliana) (UniProt Q7X9V3); remark: listed apart in the source
purified protein = substrate: CC(=O)SCCNC(=O)CCNC(=O)[C@H](O)C(C)(C)COP(=O)(O)OP(=O)(O)OC[C@H]1O[C@@H](n2cnc3c(N)ncnc32)[C@H](O)[C@@H]1OP(=O)(O)O; assay: purified protein; assay type: biochemical, Arabidopsis thaliana; conditions: acetyl-CoA 0-500 µM, 150 mM K-phosphate pH 8.0, 50 mM NaCl, 30 °C
[3] = co-substrate Nα-Ala peptide A-A-Q-G-A-K(ac)-A-A-K(Dnp)-Ahx-r-r-r 100 µM
[4] = co-substrate Nα-Val peptide V-A-Q-G-A-K(ac)-A-A-K(Dnp)-Ahx-r-r-r 100 µM

B1: His6-GNAT1 (enzyme)
chain: AAMQRKPPSYSISDEDLESRGFLLRRTTEGLNLDQLNSVFAAVGFPRRDTAKIEVALQHTDALLWVEYEKTRRPVAFARATGDGVFNAIIWDVVVDPSFQSCGLGKAVMERLIEDLQVKGICNIALYSEPRVLGFYRPLGFVSDPDGIKGMVFIRKQRNKK
B1 was tested, and the acetylation of the Nα-Ala peptide in the presence of both GNATs, turnover as percent of the hypothetical sum of both individual activities [1] was 53%, the acetylation of the Nα-Met peptide by His6-GNAT1 + His6-GNAT2 (1 + 1 μM), effective activity as percent of the hypothetical sum of the single activities [2] was 55% and the acetylation of the Nα-Thr peptide by His6-GNAT1 + His6-GNAT2 (1 + 1 μM), effective activity as percent of the hypothetical sum of the single activities [2] was 73%. For the same binder, the acetylation of the Nα-Val peptide by His6-GNAT1 + His6-GNAT2 (1 + 1 μM), effective activity as percent of the hypothetical sum of the single activities [2] was 76%, the acetylation rate of the Nα-Ala peptide by His6-GNAT1 + His6-GNAT2 (1 + 1 μM), against around 450 nmol ∙ min^-1 expected for additive activity [2] was 250 nmol/min and the lysine acetylation of the Nε-Lys peptide by His6-GNAT1 + His6-GNAT2 (1 + 1 μM), effective activity as percent of the hypothetical sum of the single activities [2] was 93%.

B2: His6-GNAT1 (Arabidopsis thaliana) (protein)
chain: AAMQRKPPSYSISDEDLESRGFLLRRTTEGLNLDQLNSVFAAVGFPRRDTAKIEVALQHTDALLWVEYEKTRRPVAFARATGDGVFNAIIWDVVVDPSFQSCGLGKAVMERLIEDLQVKGICNIALYSEPRVLGFYRPLGFVSDPDGIKGMVFIRKQRNKK
notes: N-terminal His6 (pQE-30), predicted plastid transit peptide (36 N-terminal residues) removed; expressed in E. coli SoluBL21, Ni-NTA
Binder B2 has a Km (purified protein; [3]) of 137.6 ± 9.8 µM and a kcat (purified protein; [3]) of 0.00858 ± 0.00025 s⁻¹.

B3: His6-GNAT2 (Arabidopsis thaliana) (protein)
chain: SGFVKNNNSTQLVEPPSIVNDEEEETEPLLPVEFTLVERNLEDGLVEEIIFSSGGEIDVYDLQGLCDKVGWPRRPLVKLAAALKNSYMVATLHSVMKSSSDSDSSEGGDGEKQQEKKLIGMARATSDHAFNATIWDVLVDPEYQGQGLGKALVEKLVRALLQRDIGNISLFADSQVVDFYQNLGFEADPEGIKGMFWYPK
notes: expressed in E. coli, purified
Work on B3 yielded a Km (purified protein; [4]) of 23.44 ± 0.32 µM and a kcat (purified protein; [4]) of 0.02335 ± 5e-05 s⁻¹.
